For 2 substances, fold of avidity against TF1, EC50, in vitro cytotoxicity, Daudi and Ramos cells and EC50, in vitro cytotoxicity, Jeko-1 cells results are on record in patent US20110274704A1.

The target in assay [1] is fusion protein containing the A3B3 domain of CEA (UniProt P06731). Briefly: competitive ELISA on coated A3B3 fusion protein; competitor HRP-conjugated hMN-14 IgG (1 nM). (In an ELISA, binding on a coated surface is turned into a signal by an enzyme label.)
Assay [2] concerns the target CD20 on lymphoma and leukemia cell lines (human) (UniProt P11836). Put plainly: cell-based or functional assay.

Sequence of CD20 on lymphoma and leukemia cell lines (human) (P11836 whole entry): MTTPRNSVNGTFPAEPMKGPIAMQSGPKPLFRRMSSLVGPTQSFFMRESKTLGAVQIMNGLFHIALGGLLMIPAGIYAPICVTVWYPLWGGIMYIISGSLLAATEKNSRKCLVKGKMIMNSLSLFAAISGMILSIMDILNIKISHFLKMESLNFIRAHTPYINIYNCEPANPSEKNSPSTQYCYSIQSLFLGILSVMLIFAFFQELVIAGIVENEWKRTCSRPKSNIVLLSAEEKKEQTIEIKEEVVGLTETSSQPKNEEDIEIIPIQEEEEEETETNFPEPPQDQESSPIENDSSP

Substance TF2 (bispecific antibody) gave a fold of avidity against TF1 in assay [1] of 2 fold.

In assay [2], 20-Rap (antibody) had an EC50, in vitro cytotoxicity, Daudi and Ramos cells of 0.0001 µM; an EC50, in vitro cytotoxicity, Jeko-1 cells of 20 µM.
